Reference: publication PMC3469469
Like-named read-outs stand apart in the source and are kept apart here.

Columns and labels:
[1] = target: complement C3b (human) (UniProt P01024)
[2] = target: C3d C3d (Homo sapiens) (UniProt P01024); conditions: cited from earlier work
[3] = target: C3d C3d (Homo sapiens) (UniProt P01024); conditions: cited from earlier work; remark: listed apart in the source

Sequence of C3d C3d (Homo sapiens) (P01024 1002-1303): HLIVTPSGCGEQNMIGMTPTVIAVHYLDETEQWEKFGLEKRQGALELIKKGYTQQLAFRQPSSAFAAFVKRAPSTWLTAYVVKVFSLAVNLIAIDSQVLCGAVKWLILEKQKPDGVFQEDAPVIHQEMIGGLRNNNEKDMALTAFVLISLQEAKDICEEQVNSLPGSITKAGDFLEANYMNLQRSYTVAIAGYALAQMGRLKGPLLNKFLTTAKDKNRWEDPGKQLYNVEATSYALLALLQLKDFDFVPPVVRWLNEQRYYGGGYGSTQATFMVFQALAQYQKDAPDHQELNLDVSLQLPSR
Sequence of Efb-C (domain or fragment) (A6QG59 101-165 limits assumed): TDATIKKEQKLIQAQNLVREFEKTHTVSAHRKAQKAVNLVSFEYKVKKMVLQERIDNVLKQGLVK
Sequence of Efb Efb-C (P68799 101-165): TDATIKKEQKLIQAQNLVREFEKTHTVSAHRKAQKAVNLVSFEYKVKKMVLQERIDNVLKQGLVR

| Substance | C3b left on serum-opsonized S. aureus after plasmin with 2 µM fragment, flow cytometry (amount without plasmin set to 100%) [1] | further results |
| --- | --- | --- |
| Efb-C (domain or fragment) | 38% | – |
| Sbi 3–4 (domain or fragment) | 50% | – |
| Efb Efb-C (from UniProt P68799) | – | Kd [2]: 0.8 nM |
| Sbi domains 3-4 (from UniProt A7X659) | – | Kd [3]: 1400 nM |
